The assay deals with HIV-1 BaL envelope glycoprotein gp120 (head of the virion Env spike) (HIV-1 BaL). The assay is described as follows: cryo-EM structure; cryoelectron tomography of vitrified AT-2-treated HIV-1 BaL virions in PBS; 300 kV, pixel 5.56 A; spike subvolumes (2,070 kept) aligned, classified into eight classes and averaged with missing-wedge compensation, no symmetry imposed; head and leg regions also aligned and classified separately.

For one substance, stoichiometry N results are on record in publication PMC2577619.

One may read the stoichiometry N as the number of molecules, sites or subunits per partner or assembly.

With “HIV-1 BaL envelope glycoprotein gp120 (head of the virion Env spike) (natural protein)”, the stoichiometry N was found to be 3.
